Measured values: PMC11965285

Biological target: Lyn kinase (mouse (endogenous in mouse brain)) (UniProt P25911)
Assay: pull-down

UniProt P25911, sequence (P25911 whole entry): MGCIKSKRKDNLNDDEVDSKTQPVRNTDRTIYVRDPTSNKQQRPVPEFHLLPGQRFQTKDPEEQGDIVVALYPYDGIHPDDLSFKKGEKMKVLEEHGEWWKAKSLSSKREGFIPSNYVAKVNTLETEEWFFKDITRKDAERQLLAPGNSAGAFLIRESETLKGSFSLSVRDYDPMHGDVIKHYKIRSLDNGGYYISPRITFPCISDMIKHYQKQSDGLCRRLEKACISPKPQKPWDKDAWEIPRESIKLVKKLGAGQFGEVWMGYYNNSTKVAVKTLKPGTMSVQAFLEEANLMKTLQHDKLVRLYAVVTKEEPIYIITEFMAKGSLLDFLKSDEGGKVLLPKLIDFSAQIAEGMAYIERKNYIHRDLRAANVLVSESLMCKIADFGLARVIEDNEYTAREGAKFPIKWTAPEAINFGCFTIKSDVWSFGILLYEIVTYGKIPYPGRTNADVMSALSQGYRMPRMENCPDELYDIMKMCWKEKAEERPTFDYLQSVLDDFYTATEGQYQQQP

IC50: 17.9 nM
Substance: TLR4-Lyn interacting modulator (TLIM) protein (domain or fragment)
